Laboratory results from patent US20060193821, “Aptamers to the human IL-12 cytokine family and their use as autoimmune disease therapeutics” (published 2006).
Substitutions are numbered along the chain they refer to.

B1: rRmY clone SEQ 74 (ssRNA)
RNA: GGGAGAGGAGAGAACGUUCUACGGUAAAGCAGGCUGACUGAAAGGUUGAAGUCGCUGUCGAUCGAUCGAUCGAUG
modifications: 2'-OMe C,U
B2: rRmY clone SEQ 75 (ssRNA)
RNA: GGGAGAGGAGAGAACGUUCUACAGGUUAAGAGCAGGCUCAGGAAUGGAAGUCGCUGUCGAUCGAUCGAUCGAUG
modifications: 2'-OMe C,U
B3: rRmY clone SEQ 77 (ssRNA)
RNA: GGGAGAGGAGAGAACGUUCUACAACAAAGCAGGCUCAUAGUAAUAUGGAAGUCGCUGUCGAUCGAUCGAUCGAUG
modifications: 2'-OMe C,U
B4: rRmY clone SEQ 84 (ssRNA)
RNA: GGGAGAGGAGAGAACGUUCUACGGAAAAAGAUAUGAAAGAAAGGAUUAAGAGACGCUGUCGAUCGAUCGAUCGAUG
modifications: 2'-OMe C,U
B5: rRmY clone SEQ 82 (ssRNA)
RNA: GGGAGAGGAGAGAACGUUCUACGAGAGGCAAGAGAGAGUCGCAUAAAAAAGACGCUGUCGAUCGAUCGAUCGAUG
modifications: 2'-OMe C,U
B6: rRmY clone SEQ 73 (ssRNA)
RNA: GGGAGAGGAGAGAACGUUCUACAAAUGAGAGCAGGCCGAAAAGGAGUCGCUCGCUGUCGAUCGAUCGAUCGAUG
modifications: 2'-OMe C,U
B7: rRmY clone SEQ 78 (ssRNA)
RNA: B6 RNA with U26A
modifications: 2'-OMe C,U
B8: rRmY clone SEQ 71 (ssRNA)
RNA: B6 RNA with A41G
modifications: 2'-OMe C,U
B9: rRmY clone SEQ 81 (ssRNA)
RNA: B6 RNA with A23G
modifications: 2'-OMe C,U
B10: rRmY clone SEQ 72 (ssRNA)
RNA: B6 RNA
modifications: 2'-OMe C,U
B11: rRmY clone SEQ 79 (ssRNA)
RNA: GGGAGAGGAGAGAACGUUCUACAAAAGGCAGGCUCAGGGGAUCACUGGAAGUCGCUGUCGAUCGAUCGAUCGAUG
modifications: 2'-OMe C,U
B12: rRmY clone SEQ 86 (ssRNA)
RNA: GGGAGAGGAGAGAACGUUCUACUAAUGCAGGCUCAGUUACUACUGGAAGUCGCUGUCGAUCGAUCGAUCGAUG
modifications: 2'-OMe C,U
B13: rRmY clone SEQ 87 (ssRNA)
RNA: AGGAGAGGAGAGAACGUUCUACUAGAAGCAGGCUCGAAUACAAUUCGGAAGUCGCUGUCGAUCGAUCGAUCGAUG
modifications: 2'-OMe C,U
B14: ARC1165 (mixed)
RNA: ACAGGCAAGUAAUUGGGGAGUGCGGGCGGGGUGU
modifications: deoxy A,G; 2'-OMe C,U; PS 26-27 [PS between 26-27; 2'-OMe C,U at 2,6,10,13,14,21,23,27,32,34; deoxy A,G at all other positions]
B15: ARC1159 (mixed)
RNA: B14 RNA
modifications: deoxy A,G; 2'-OMe C,U; PS 14-15 [PS between 14-15; 2'-OMe C,U at 2,6,10,13,14,21,23,27,32,34; deoxy A,G at all other positions]
B16: ARC1164 (mixed)
RNA: B14 RNA
modifications: deoxy A,G; 2'-OMe C,U; PS 22-23 [PS between 22-23; 2'-OMe C,U at 2,6,10,13,14,21,23,27,32,34; deoxy A,G at all other positions]
B17: ARC1168 (mixed)
RNA: B14 RNA
modifications: deoxy A,G; 2'-OMe C,U; PS 32-33 [PS linkage 32-33; 2'-OMe C,U at 2,6,10,13,14,21,23,27,32,34; all A,G 2'-deoxy]
B18: ARC1157 (mixed)
RNA: B14 RNA
modifications: deoxy A,G; 2'-OMe C,U; PS 12-13 [PS between 12-13; 2'-OMe C,U at 2,6,10,13,14,21,23,27,32,34; deoxy A,G at all other positions]
B19: ARC1169 (mixed)
RNA: B14 RNA
modifications: deoxy A,G; 2'-OMe C,U; PS 33-34 [PS linkage 33-34; 2'-OMe C,U at 2,6,10,13,14,21,23,27,32,34; all A,G 2'-deoxy]
B20: C10.1 (ssRNA)
RNA: GGACACAAGAGAUGUAUUCAGGCGGUCCGCAUUGAUGUCAGUUAUGCGUAGCUCCGCC
modifications: 2'-F C,U
B21: C11.1 (ssRNA)
RNA: GGAAGAAUGGUCGGAAUCUCUGGCGCCACGCUGAGUAUAGACGGAAGCUCCGCCAGA
modifications: 2'-F C,U
B22: A10.min1 (ssRNA)
RNA: GGAGAUCAUACACAAGAAGUUUUUUGUGCUCUGAGUACUCAGCGUCCGUAAGGGAUCUCC
modifications: 2'-F C,U
B23: B10.min1 (ssRNA)
RNA: GGAGCGAAUCAUACACAAGAAGUGCUUCAUGCGGCAAACUGCAUGACGUCGAAUAGAUAUGCUCC
modifications: 2'-F C,U

What follows are binders tested against T1, IL-23 (human, p19/p40 heterodimer) (Homo sapiens, UniProt Q9NPF7;P29460 SEQ:20-189,SEQ:23-328) (assay: filter; DPBS Ca Mg). Details: tags: R&D Systems, carrier free.
Protocol: The selection progress was monitored using the dot blot sandwich filter binding assay as described in Example 1A. The 5′-³²P-labeled pool RNA was refolded at 90° C. for 3 minutes and cooled to room temperature for 10 minutes. Next, pool RNA (trace concentration) was incubated with h-IL-23 DPBS plus 0.1 mg/mL tRNA for 30 minutes at room temperature and then applied to a nitrocellulose and nylon filter sandwich in a dot blot apparatus (Schleicher and Schuell). The percentage of pool RNA bound to the nitrocellulose was calculated and monitored approximately every 3 rounds with a single point screen (+/−250 nM h-IL-23). Pool KD measurements were measured using a titration of h-IL-23 protein (R&D, Minneapolis, Minn.) and the dot blot apparatus as described above.
The rRmY h-IL-23 selection was enriched for h-IL-23 binding vs. the naïve pool after 4 rounds of selection (data not shown). The selection stringency was increased and the selection was continued for 8 more rounds. […] The rGmH selection was enriched over the naïve pool binding at Round 10. […] FIG. 7 is a binding curve of rRmY and rGmH pool selection binding to h-IL-23. The pools were cloned using TOPO TA cloning kit (Invitrogen, Carlsbad, Calif.) and individual sequences were generated and tested for binding. A single point binding screen was initially performed on all crude rRmY clone transcriptions using a 1:200 dilution, +/−200 nM IL-23, plus 0.1 mg/mL competitor tRNA. […] The 10 point screen was performed using zero to 480 nM IL-23 in 3 fold serial dilutions. Binding curves were generated (KaleidaGraph v. 3.51, Synergy Software) and KDs were estimated by fitting the data to the equation: fraction RNA bound=amplitude[h-IL-23]/KD+[h-IL-23]). […] There was one group of 6 duplicate sequences and 4 pairs of 2 duplicate sequences out of the rRmY clones generated. […] Clones were also tested from 48 crude rGmH clone transcriptions at a 1:200 dilution and 0.1 mg/mL tRNA was used as competitor.

T1 sequence (Q9NPF7 20-189, chain 1 of 2): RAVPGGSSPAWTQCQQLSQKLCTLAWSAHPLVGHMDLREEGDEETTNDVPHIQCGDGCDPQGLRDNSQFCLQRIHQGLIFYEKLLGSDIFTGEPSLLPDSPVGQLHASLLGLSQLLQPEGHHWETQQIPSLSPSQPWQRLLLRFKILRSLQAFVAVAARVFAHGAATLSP
T1 sequence (P29460 23-328, chain 2 of 2): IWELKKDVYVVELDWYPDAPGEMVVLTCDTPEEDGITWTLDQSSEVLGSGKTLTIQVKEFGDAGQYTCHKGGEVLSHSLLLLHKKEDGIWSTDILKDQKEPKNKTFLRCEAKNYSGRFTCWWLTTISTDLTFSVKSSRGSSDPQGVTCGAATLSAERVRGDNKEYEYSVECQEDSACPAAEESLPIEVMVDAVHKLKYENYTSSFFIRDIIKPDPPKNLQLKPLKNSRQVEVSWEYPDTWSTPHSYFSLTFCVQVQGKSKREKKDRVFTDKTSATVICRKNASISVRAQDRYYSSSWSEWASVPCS

Binder	Kd
B1	257 nM
B2	479 nM
B3	259 nM
B4	602 nM
B5	199 nM
B6	101 nM
B7	124 nM
B8	124 nM
B9	303 nM
B10	211 nM
B11	807 nM
B12	219 nM
B13	122 nM

The binders below were run against T1, IL-23 (human, p19/p40 heterodimer) (assay: filter; -tRNA). Details: tags: R&D Systems, carrier free.
Protocol: These molecules were gel purified and assayed for IL-23 binding using the dot blot assay as described above and compared to each other and to the parent molecule, ARC979. An 8 point IL-23 titration (0 nM to 300 nM, 3 fold serial dilutions) was used in the binding assay.

Binder	Kd
B14	55 nM
B15	77 nM
B16	79 nM
B17	82 nM
B18	69 nM
B19	74 nM

The binders below were run against T1, IL-23 (human, p19/p40 heterodimer) (assay: filter; 100 nM IL-23). Details: tags: R&D Systems, carrier free.

Binder	binding signal
GGAUACCCGAGAGGGCUGGCGAAAGCCUCGGCGAGAGCUAUCC (ssRNA, 2'-F C,U) [Type 1.3]	0.6 +/- ratio
B20	4.4 +/- ratio
GGAGUCUGAGUACUCAGCGUCCCGAGAGGGGAUAUGCUCCGCCAGACUCC (ssRNA, 2'-F C,U) [A10.min4]	0.7 +/- ratio
GGAGGCGCCACGCUGAGUAUAGACGGAAGCUCCGCCUCC (ssRNA, 2'-F C,U) [C11.2]	2.3 +/- ratio
GGAUCAUACACAAGAAGUGCUUCACGAAAGUGACGUCGAAUAGAUCC (ssRNA, 2'-F C,U) [B10.min3]	0.8 +/- ratio
B21	3.5 +/- ratio
GGAAUCAUACCGAGAGGUAUUACCCCGAAAGGGGACCAUUCC (ssRNA, 2'-F C,U) [Type 2.1]	5.2 +/- ratio
GGAGUCUGAGUACUCAGCGUCCGUAAGGGAUAUGCUCCGCCAGACUCC (ssRNA, 2'-F C,U) [A10.min2]	6 +/- ratio
GGCAUACACGAGAGUGCUGUCGAAAGACUCGGCCGAGAGGCUAUGCC (ssRNA, 2'-F C,U) [Type 1.1]	0.9 +/- ratio
GGCAUACGCGAGAGCGCUGGCGAAAGCCUCGGCCGAGAGGCUAUGCC (ssRNA, 2'-F C,U) [Type 1.2]	0.7 +/- ratio
GGAAUCAUACACAAGAGUGUAUUACCCCCAACCCAGGGGGACCAUUCC (ssRNA, 2'-F C,U) [D9.1]	3.9 +/- ratio
B22	3.1 +/- ratio
B23	33.9 +/- ratio
GGUUAAAUCUCAUCGUCCCCGUUUGGGGAU (ssRNA, 2'-F C,U) [F11.min1]	0.6 +/- ratio
